Source: patent publication US20130143318A1 (BOARD OF REGENTS OF THE UNIVERSITY OF OKLAHOMA, published 2013)

Legend:
[1] = target: T1, human Rrn3 (human, UniProt Q9NYV6 1-651, limits assumed); experiment: yeast two-hybrid
T1 construct: Two-hybrid fusion partner not described; also called hRrn3

[2] = target: T2, mouse Rrn3 (mouse, UniProt B2RS91 1-656, limits assumed); experiment: yeast two-hybrid
T2 construct: Two-hybrid fusion partner not described; also called mRrn3
T2 sequence (B2RS91 whole entry, the tested form may be a part): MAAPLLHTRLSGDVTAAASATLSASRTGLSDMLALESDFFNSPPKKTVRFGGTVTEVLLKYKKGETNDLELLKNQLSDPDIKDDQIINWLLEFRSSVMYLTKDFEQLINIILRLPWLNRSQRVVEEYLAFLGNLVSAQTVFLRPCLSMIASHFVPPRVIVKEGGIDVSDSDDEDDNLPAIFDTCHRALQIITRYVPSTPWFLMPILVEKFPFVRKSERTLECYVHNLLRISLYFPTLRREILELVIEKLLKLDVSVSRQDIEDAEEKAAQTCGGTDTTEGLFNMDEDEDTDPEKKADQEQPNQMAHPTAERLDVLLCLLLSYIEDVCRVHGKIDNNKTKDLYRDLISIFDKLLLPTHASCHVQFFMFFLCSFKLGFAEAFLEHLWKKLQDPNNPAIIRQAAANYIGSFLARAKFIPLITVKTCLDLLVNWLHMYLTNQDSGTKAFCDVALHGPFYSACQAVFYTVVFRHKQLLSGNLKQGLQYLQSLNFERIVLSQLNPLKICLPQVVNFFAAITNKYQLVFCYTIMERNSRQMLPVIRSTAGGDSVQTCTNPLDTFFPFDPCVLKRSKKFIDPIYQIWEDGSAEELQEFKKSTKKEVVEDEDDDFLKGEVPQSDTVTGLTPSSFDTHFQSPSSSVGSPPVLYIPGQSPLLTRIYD

T1 sequence (Q9NYV6 whole entry, the tested form may be a part): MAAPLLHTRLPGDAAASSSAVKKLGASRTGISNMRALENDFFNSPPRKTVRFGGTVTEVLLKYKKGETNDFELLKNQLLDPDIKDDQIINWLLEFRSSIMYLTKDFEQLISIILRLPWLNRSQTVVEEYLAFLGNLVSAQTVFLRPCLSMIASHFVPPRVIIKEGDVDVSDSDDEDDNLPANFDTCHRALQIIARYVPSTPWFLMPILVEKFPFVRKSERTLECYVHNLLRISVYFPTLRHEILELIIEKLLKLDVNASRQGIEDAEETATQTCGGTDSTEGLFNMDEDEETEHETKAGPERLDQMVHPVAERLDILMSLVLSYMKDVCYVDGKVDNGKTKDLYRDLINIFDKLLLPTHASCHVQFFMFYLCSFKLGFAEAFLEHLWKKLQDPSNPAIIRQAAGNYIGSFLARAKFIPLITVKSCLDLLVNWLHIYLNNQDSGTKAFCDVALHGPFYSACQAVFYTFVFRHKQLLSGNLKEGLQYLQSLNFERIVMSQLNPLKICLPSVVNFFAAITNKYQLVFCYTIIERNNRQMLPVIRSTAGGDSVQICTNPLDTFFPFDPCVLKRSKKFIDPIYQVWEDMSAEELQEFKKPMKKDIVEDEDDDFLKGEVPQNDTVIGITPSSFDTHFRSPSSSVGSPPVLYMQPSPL

B1: mouse Rpa43 (43 kDa subunit of RNA polymerase I), wild type (other, UniProt Q78WZ7 1-330, looked up)
chain: MAAGSVESQRSQAASERPVAGQAGVLPCLELPSYAAACALVGSRYSCLVAAPHRRHIALSPRYLSRKRTGIREQLDAELLRYSESLLGVPIAYDNIRVVGELGDIYDDQGHIHLNIEADFVIFCPEPGQTLMGTVNKVSSSHIGCLVHGCFNASIPKPEQMSYEEWQTLEIHVGDELEFDVFRLDSDSAGVFCIRGKLSTTSLQLKHSAVSEDVAETVVEEVVEKTPKKKKKKKDKDTDTCGTVDSVTEVADVTDVTPQEETDIPCSDNVNDFFEEEPKKKKKKKKRHQEDQDPIFQASDSSGYQSDHNKKKKKRKHSEEANFESPKKRQ
notes: also called mRPA43; wild type Rpa43
- binding result [1]: binds
- binding result [2]: binds
